Experimental data from article PMC5039489.
One block for each molecule: values may come before it.

Experiments:
[1] = molecular target: CK2α-DBCO545 (human protein kinase CK2α subunit with pAzF at position 239, coupled to DBCO545) (human) (UniProt P68400)
[2] = molecular target: CK2α-DBCO-Sulfo-Cy5 (human protein kinase CK2α subunit with pAzF at position 239, coupled to DBCO-Sulfo-Cy5) (human) (UniProt P68400); experiment: MST; CK2α-DBCO-Sulfo-Cy5 constant (65 nM), αS1-casein titrated from 0.76 nM to 12.50 µM; kinase buffer (50 mM Tris/HCl pH 8.5, 25 mM NaCl, 20 mM MgCl2) with 0.1% Tween-20; samples incubated at 37 °C for 90 min; recorded at 30 °C; Monolith NT.115; three independent experiments
[3] = molecular target: CK2β autotransporter fusion protein (CK2β-AT), displayed on the surface of E. coli by Autodisplay (human); experiment: flow cytometry on cells; E. coli BL21(DE3) cells displaying the protein by Autodisplay (OD578 = 1, 20 µL) incubated with 10 µL purified CK2α-DBCO545 for 60 min at 37 °C, washed three times with PBS; 561 nm laser; 50,000 cells

phosphorylation activity on the substrate peptide … by capillary electrophoresis: CK2α-DBCO545 with purified CK2β added in a 1:1 ratio against CK2α-DBCO545 alone [1]: 8 fold
Molecule: purified regulatory CK2β-subunit (from UniProt P67870 1-215) (natural protein)

Kd [2]: 631 nM
B1: human αS1-casein (natural protein)
chain: RPKLPLRYPERLQNPSESSEPIPLESREEYMNGMNRQRNILREKQTDEIKDTRNESTQNCVVAEPEKMESSISSSSEEMSLSKCAEQFCRLNEYNQLQLQAAHAQEQIRRMNENSHVQVPFQQLNQLAAYPYAVWYYPQIMQYVPFPPFSDISNPTAHENYEKNNVMLQW

mean fluorescence intensity (mF) [3]: 3800
B2: CK2α-DBCO545 (human protein kinase CK2α subunit with pAzF at position 239, coupled to DBCO545) (enzyme)
chain: MSGPVPSRARVYTDVNTHRPREYWDYESHVVEWGNQDDYQLVRKLGRGKYSEVFEAINITNNEKVVVKILKPVKKKKIKREIKILENLRGGPNIITLADIVKDPVSRTPALVFEHVNNTDFKQLYQTLTDYDIRFYMYEILKALDYCHSMGIMHRDVKPHNVMIDHEHRKLRLIDWGLAEFYHPGQEYNVRVASRYFKGPELLVDYQMYDYSLDMWSLGCMLASMIFRKEPFFHGHDN
modifications: para azidophenylalanine (pAzF) at 239, coupled to dibenzylcyclooctyne-fluor 545 (DBCO545) by SPAAC click reaction
